The text below walks through data of US20260242759A1, “GQ/11 Protein Peptidomimetics” (Vrije Universiteit Brussel, priority 2022, published 2026).

Positions of bridges follow the written chain, without caps; N, C: chain ends. Non-standard residues stand in square brackets, D forms with d. Residues, ends and D or L forms follow the SMILES beside them. Triazole bridges read from a SMILES are 1,4-linked. Lys(N3) = [N-]=[N+]=NCCCC[C@H](N)C(=O)O; Cha = N[C@@H](CC1CCCCC1)C(=O)O; Pra = C#CC[C@H](N)C(=O)O

Series [1] has as its system HEK293 cells overexpressing the ghrelin receptor. Kind of series: Fluorescence microscopy of cell permeability. To be noted: 5 μM, 3 h 45 min, 37° C. Type of series: cell-based, human. As to the method: To visualise cell-penetration of the peptides, HEK293 1C8 cells were seeded in 12-well plates, covered with a coverslip, at 120,000 cells/well. After overnight incubation (37° C., 5% CO2), cells were washed with PBS and treated with the fluorescently labeled peptides for 2 h45. Next, BG-fluorescein was added to the mixture, for Snap tag labeling of the cell-surface GHSR. After incubation of 1 h the cells were washed four times with PBS. Cells were then fixed using 4% paraformaldehyde in PBS for 5 min and washed two times with PBS. Finally, Hoechst was diluted 1/1000 in PBS, added to the fixed cells during 10 min, and washed thrice with PBS.
The cells for permeabilization were first incubated with BG-fluorescein during 1 h, followed by four times washing with PBS. The cells were then fixed with 4% paraformaldehyde in PBS for 5 min washed twice. Afterwards, the cells were permeabilized with Triton 0.1% in PBS during 5 min and washed thrice. Finally, the cells were incubated for 3 h 45 with the peptide and washed three times before Hoechst was added for 10 min.
The SulfoCy5-labeled Gq/11 peptidomimetics of Example 5 were also analyzed by fluorescence microscopy to investigate their cell membrane permeability. HEK293 cells overexpressing the ghrelin receptor were seeded overnight on microscope slides. The cells were incubated with 5 μM of SulfoCy5-labeled Gq/11 peptidomimetics for 3 h 45 min at 37° C., followed by Hoechst staining for visualizing the nucleus. The cell membrane was visualized by staining the cell surface ghrelin receptors with fluorescein.

The target of series [2] is purified bimane labeled ghrelin receptor (human, cysmin mutant, in lipidated nanodiscs) (human) (UniProt Q92847). Kind of series: cell-based or functional assay.
Series [3] can be described thus: MTT cytotoxicity assay. Particulars: human, HEK293 1C8 cells, 3 h 45 min, read-out: cell viability. Type of series: cell-based, human. As to the method: Cells were washed two times with PBS and incubated with 3-(4,5-dimethylthiazol-2-yl)-2,5-diphenyltetrazolium bromide (MTT) during 3 h, at 37° C. Afterwards, cells were washed once with PBS and then incubated for 10 min with DMSO. Plates were analysed with a Tecan Spark 10 M microplate reader.
An MTT assay was used to assess the cytotoxicity of the non-fluorescent Gq/11 peptidomimetics of Example 5. An MTT assay is a colorimetric test that evaluates the cell metabolic activity and reflects the cell viability.
On the technique in general: Tetrazolium dyes change colour on reduction, which living cells bring about.

The target of series [4] is T1, ghrelin receptor overexpressed on HEK293 cells (UniProt Q92847 1-366, limits assumed). Kind of series: cell-based or functional assay.
Series [5] deals with T1, ghrelin receptor overexpressed on …. Nature of the series: cell-based or functional assay. The source holds these as a separate data set.
For series [6], the target named is T2, full-length human muscarinic 1 receptor with a FLAG tag at the N-terminus (human, UniProt P11229 1-460).
T2 sequence: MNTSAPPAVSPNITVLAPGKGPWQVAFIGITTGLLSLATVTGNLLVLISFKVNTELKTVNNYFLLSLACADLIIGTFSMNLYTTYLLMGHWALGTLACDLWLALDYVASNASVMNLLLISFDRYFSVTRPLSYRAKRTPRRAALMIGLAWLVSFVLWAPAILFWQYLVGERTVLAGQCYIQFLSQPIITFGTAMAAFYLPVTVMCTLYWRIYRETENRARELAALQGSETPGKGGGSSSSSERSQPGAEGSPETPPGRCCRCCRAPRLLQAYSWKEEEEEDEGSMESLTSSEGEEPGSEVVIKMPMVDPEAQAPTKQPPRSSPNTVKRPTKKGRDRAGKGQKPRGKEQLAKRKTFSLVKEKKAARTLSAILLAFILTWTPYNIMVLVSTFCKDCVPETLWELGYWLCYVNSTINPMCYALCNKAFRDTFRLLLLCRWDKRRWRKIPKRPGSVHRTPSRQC
Nature of the series: cell-based or functional assay.

Chain of purified bimane labeled ghrelin receptor (human, cysmin mutant, in lipidated nanodiscs) (human) (Q92847 other isoform, or with tags, fused parts or gaps mutant): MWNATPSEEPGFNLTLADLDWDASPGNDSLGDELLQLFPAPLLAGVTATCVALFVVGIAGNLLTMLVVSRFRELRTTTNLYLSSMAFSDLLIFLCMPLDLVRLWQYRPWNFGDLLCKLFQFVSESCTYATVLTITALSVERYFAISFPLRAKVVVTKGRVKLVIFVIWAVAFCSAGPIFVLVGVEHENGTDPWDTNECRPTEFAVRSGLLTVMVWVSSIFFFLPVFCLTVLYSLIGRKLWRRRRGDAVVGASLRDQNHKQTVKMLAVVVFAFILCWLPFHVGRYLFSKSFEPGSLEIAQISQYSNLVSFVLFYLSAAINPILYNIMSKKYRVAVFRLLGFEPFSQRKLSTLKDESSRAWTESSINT
T1 sequence (Q92847 whole entry): as the sequence (Q92847 other isoform, or with tags, fused parts or gaps mutant) above, with S146C, S304C counted along it

Turning to “H-C(SulfoCy5)-Ahx-KKKFAc[PraVKDAzk]ILQLNLKEYNLV-OH [SBL-GQ-21]”, in series [1], the “SulfoCy5-labeled peptide observed inside cells” value is “very little or no”.
Still for that read-out and setting: as for “H-C(SulfoCy5)-Ahx-RRRRFAc[PraVKDAzk]ILQLNLKEYNLV-OH [SBL-GQ-22]”, the entry is “very little or no”; as for “H-C(SulfoCy5)-Ahx-RRRRRRRRFAc[PraVKDAzk]ILQLNLKEYNLV-OH [SBL-GQ-23]”, “entered cells”.
dynorphin [reference compound]: the “SulfoCy5-labeled peptide observed inside cells” value in series [1] is given as “very little or no”.
Molecule purified Gαqβ1γ2 heterotrimer returned a bimane maximum emission wavelength, with agonist JMV1843 in series [2] of 480 nm.
Usually viability stands for a read-out of living cells in per cent, often relative to untreated cells. For the molecule `CC[C@H](C)[C@H](NC(=O)[C@@H]1CCCCn2cc(nn2)C[C@H](NC(=O)[C@H](C)NC(=O)[C@H](Cc2ccccc2)NC(=O)[C@H](CCCNC(=N)N)NC(=O)[C@H](CCCNC(=N)N)NC(=O)[C@H](CCCNC(=N)N)NC(=O)[C@H](CCCNC(=N)N)NC(=O)[C@H](CCCNC(=N)N)NC(=O)[C@H](CCCNC(=N)N)NC(=O)[C@H](CCCNC(=N)N)NC(=O)[C@@H](N)CCCNC(=N)N)C(=O)N[C@@H](C(C)C)C(=O)N[C@@H](CCCCN)C(=O)N[C@@H](CC(=O)O)C(=O)N1)C(=O)N[C@@H](CC(C)C)C(=O)N[C@@H](CCC(N)=O)C(=O)N[C@@H](CC(C)C)C(=O)N[C@@H](CC(N)=O)C(=O)N[C@@H](CC(C)C)C(=O)N[C@@H](CCCCN)C(=O)N[C@@H](CCC(=O)O)C(=O)N[C@@H](Cc1ccc(O)cc1)C(=O)N[C@@H](CC(N)=O)C(=O)N[C@@H](CC(C)C)C(=O)N[C@H](C(=O)O)C(C)C` [SBL-GQ-15] (H-RRRRRRRRFA[Pra]VKD[Lys(N3)]ILQLNLKEYNLV-OH; triazole 11-15), in series [3], the viability at 5 µM was about 90%, the viability at 10 µM is about 70% and the viability at 40 µM was about 50%.
For “H-C(SulfoCy5)-Ahx-RRWWRRWRRFAc[PraVKDAzk]ILQLNLKEYNLV-OH [SBL-GQ-24]”, in series [1], the “SulfoCy5-labeled peptide observed inside cells” value was “entered cells”.
For `CC[C@H](C)[C@H](NC(=O)[C@@H]1CCCCn2cc(nn2)C[C@H](NC(=O)[C@H](C)NC(=O)[C@H](Cc2ccccc2)NC(=O)[C@H](CCCNC(=N)N)NC(=O)[C@H](CCCNC(=N)N)NC(=O)[C@H](Cc2c[nH]c3ccccc23)NC(=O)[C@H](CCCNC(=N)N)NC(=O)[C@H](CCCNC(=N)N)NC(=O)[C@H](Cc2c[nH]c3ccccc23)NC(=O)[C@H](Cc2c[nH]c3ccccc23)NC(=O)[C@H](CCCNC(=N)N)NC(=O)[C@@H](N)CCCNC(=N)N)C(=O)N[C@@H](C(C)C)C(=O)N[C@@H](CCCCN)C(=O)N[C@@H](CC(=O)O)C(=O)N1)C(=O)N[C@@H](CC(C)C)C(=O)N[C@@H](CCC(N)=O)C(=O)N[C@@H](CC(C)C)C(=O)N[C@@H](CC(N)=O)C(=O)N[C@@H](CC(C)C)C(=O)N[C@@H](CCCCN)C(=O)N[C@@H](CCC(=O)O)C(=O)N[C@@H](Cc1ccc(O)cc1)C(=O)N[C@@H](CC(N)=O)C(=O)N[C@@H](CC(C)C)C(=O)N[C@H](C(=O)O)C(C)C` [SBL-GQ-25] (H-RRWWRRWRRFA[Pra]VKD[Lys(N3)]ILQLNLKEYNLV-OH; triazole 12-16), in series [3], the viability at 5 µM was about 90%, the viability at 10 µM is about 85% and the viability at 40 µM is about 50%.
For the molecule H-RRRRRRRRFA[Pra]VKD[Lys(N3)]ILQLNLKEYNLV-OH (triazole 11-15) [SBL-GQ-15], in series [4], the “EC50 (M) of the MK0677 agonist, IP-One Gq assay, peptidomimetic at 10 µM, n = 1” value (“EC50 (M) of the MK0677 agonist … at 10 µM, n = 1” below) was 2.75e-10 M; the “EC50 (M) of the MK0677 agonist, IP-One Gq assay, peptidomimetic at 10 µM, n = 2” value (from here on “EC50 (M) of the MK0677 agonist … at 10 µM, n = 2”) turned out to be 1.07e-10 M; the “EC50 (M) of the MK0677 agonist, IP-One Gq assay, peptidomimetic at 10 µM, n = 3” value (shortened to “EC50 (M) of the MK0677 agonist … n = 3”) amounted to 7.18e-11 M. Further, in series [5], the “EC50 (M) of the MK0677 agonist, IP-One Gq assay, SBL-GQ-15 5 µM, n = 1” value turned out to be 2.55e-10 M and the “EC50 (M) of the MK0677 agonist, IP-One Gq assay, SBL-GQ-15 5 µM, n = 2” value was 8.07e-11 M.
For the molecule Ac-KKKFA[Pra]VKD[Lys(N3)]ILQLNLKEYNLV-OH (triazole 6-10) [SBL-GQ-05], in series [4], the “EC50 (M) of the MK0677 agonist … at 10 µM, n = 1” value came out at 9.99e-10 M; the “EC50 (M) of the MK0677 agonist … at 10 µM, n = 2” value came to 1.53e-10 M; the “EC50 (M) of the MK0677 agonist … n = 3” value came out at 1.1e-10 M. Also, in series [6], the “IC50 (µM) of the agonist acetylcholine chloride for the M1 receptor in the presence of the peptidomimetic, RLA” value (from here on “IC50 (µM)”) was 330 µM and the “Shift (IC50 ratio without/with peptidomimetic), RLA” value came to 1. In series [2], this molecule yielded a bimane emission as percent of the effect of the Gq protein, highest peptide concentrations of 90% and a bimane maximum emission wavelength, with agonist JMV1843 of 478 nm.
Ac-KKKFN[Pra]CKD[Lys(N3)]ILQMNLREYNLV-OH (triazole 6-10) [SBL-GQ-11]: in series [6], the “IC50 (µM)” value was 57.7 µM and the “Shift (IC50 ratio without/with peptidomimetic), RLA” value worked out at 7. In addition, the bimane maximum emission wavelength, with agonist JMV1843 in series [2] came out at 478 nm.
As for H-RRWWRRWRRFA[Pra]VKD[Lys(N3)]ILQLNLKEYNLV-OH (triazole 12-16) [SBL-GQ-25], in series [5], the “EC50 (M) of the MK0677 agonist, IP-One Gq assay, SBL-GQ-25 5 µM, n = 1” value stood at 7.82e-10 M; the “EC50 (M) of the MK0677 agonist, IP-One Gq assay, SBL-GQ-25 5 µM, n = 2” value was determined as 1.7e-10 M; the “EC50 (M) of the MK0677 agonist, IP-One Gq assay, SBL-GQ-25 10 µM, n = 1” value came out at 1.54e-09 M; the “EC50 (M) of the MK0677 agonist, IP-One Gq assay, SBL-GQ-25 10 µM, n = 2” value was 4.65e-10 M.

B1: SBL-GQ-04 (peptide)
peptide: Ac-KKKFAAVKDTILQLNLKEYN[Cha]V-OH
SMILES: CC[C@H](C)[C@H](NC(=O)[C@@H](NC(=O)[C@H](CC(=O)O)NC(=O)[C@H](CCCCN)NC(=O)[C@@H](NC(=O)[C@H](C)NC(=O)[C@H](C)NC(=O)[C@H](Cc1ccccc1)NC(=O)[C@H](CCCCN)NC(=O)[C@H](CCCCN)NC(=O)[C@H](CCCCN)NC(C)=O)C(C)C)[C@@H](C)O)C(=O)N[C@@H](CC(C)C)C(=O)N[C@@H](CCC(N)=O)C(=O)N[C@@H](CC(C)C)C(=O)N[C@@H](CC(N)=O)C(=O)N[C@@H](CC(C)C)C(=O)N[C@@H](CCCCN)C(=O)N[C@@H](CCC(=O)O)C(=O)N[C@@H](Cc1ccc(O)cc1)C(=O)N[C@@H](CC(N)=O)C(=O)N[C@@H](CC1CCCCC1)C(=O)N[C@H](C(=O)O)C(C)C
Take B1: in series [4], the “EC50 (M) of the MK0677 agonist … at 10 µM, n = 1” value was 4.42e-10 M; the “EC50 (M) of the MK0677 agonist … at 10 µM, n = 2” value is 9.46e-11 M; the “EC50 (M) of the MK0677 agonist … n = 3” value was 9.87e-11 M. In series [6], the “IC50 (µM)” value is 213 µM and the “Shift (IC50 ratio without/with peptidomimetic), RLA” value worked out at 4. In addition, in series [5], the “EC50 (M) of the MK0677 agonist, IP-One Gq assay, SBL-GQ-04 5 µM, n = 1” value turned out to be 3.18e-10 M and the “EC50 (M) of the MK0677 agonist, IP-One Gq assay, SBL-GQ-04 5 µM, n = 2” value amounted to 1.41e-10 M.
Consider Ac-KKKFN[Pra]CKD[Lys(N3)]ILQMNLREYN[Cha]V-OH (triazole 6-10) [SBL-GQ-12], for which, in series [6], the “IC50 (µM)” value worked out at 13.7 µM and the “Shift (IC50 ratio without/with peptidomimetic), RLA” value is 34. Also, the bimane maximum emission wavelength, with agonist JMV1843 in series [2] was 478 nm.
In the same order, the values of Ac-KKKFA[Pra]VKD[Lys(N3)]ILQLNLKEYN[Cha]V-OH (triazole 6-10) [SBL-GQ-06] are 54.4 µM, 8 and 478 nm.
